Experimental data published in patent US20220025032A1 (Novartis, published 2022).

Experiments:
[1] = biological target: T1, membrane-bound human BTC on 293F-hBTC cells (human, UniProt P35070 32-111); experiment: cell-based or functional assay
T1 sequence: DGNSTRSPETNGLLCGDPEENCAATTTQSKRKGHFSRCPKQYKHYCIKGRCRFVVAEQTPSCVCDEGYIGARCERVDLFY

Human BTC [2] = biological target: T2, Human BTC (human, UniProt P35070 32-111); experiment: cell-based or functional assay
T2 sequence: T1 sequence

Human VEGF165 = biological target: T3, Human VEGF165 (human, UniProt P15692 27-191); experiment: competition ELISA: antibody pre-incubated with VEGF-biotin, added to coated VEGFR2
T3 construct: mature; biotinylated in the VEGFR2 ELISAs; also called human VEGF-A; VEGF-A
T3 sequence (P15692 other isoform, or with tags, fused parts or gaps): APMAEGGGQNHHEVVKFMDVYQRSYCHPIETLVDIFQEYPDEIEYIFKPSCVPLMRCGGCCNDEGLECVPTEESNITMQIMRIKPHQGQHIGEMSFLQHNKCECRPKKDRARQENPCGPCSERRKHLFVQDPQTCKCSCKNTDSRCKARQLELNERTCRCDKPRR
Description: The plates were then washed 3 times using 1λTBST. The plates were blocked in 2% BSA diluent (0.1% Tween 20/0.1% TirtonX100) overnight. After blocking, the plates were washed 3 times using TB ST and then the sample mixture was added at 20 μl/well. The sample mixture consisted a final fixed concentration of VEGF-biotin (in-house) at 400 pM and a 15 point 1:2 serial dilution of the antibody starting at 20 nM. The sample mixture was pre-incubated for 1 hour prior to adding to the plate and then incubated for another hour at room temperature on the plate. Afterwards, the plate was washed 3 times using TBST and 20 μl/well of Streptavidin-HRP diluted at 1:5000 was added for an incubation time of 1 hour. The plates were washed 3 times in TBST and then 20 μl/well of TMB substrate was added. TMB is a chromogen that yields a blue color when oxidized. TMB was incubated for 10 minutes until the signal saturated in the no antibody samples, and then 10 μl/well of 2N sulfuric acid was added which then changes the blue color to yellow and this now has a maximum absorbance at 450 nm.

Human BTC [3] = biological target: T2, Human BTC; experiment: MSD-based inhibition of BTC binding to ErbB1
Human BTC [4] = biological target: T2, Human BTC; experiment: cell-based inhibition of BTC binding to ErbB1
Human BTC [5] = biological target: T2, Human BTC; experiment: SPR Biacore T200, anti-Fab capture, antigen as analyte

Neutralization of juxtacrine signaling [1]: 89% | A431 pERK (IC50 in nM) (Human BTC [2]): 0.25 nM | ADR/Res pErbB3 (IC50 in nM) (Human BTC [2]): 5.7 nM | inhibition (Human BTC [2]): 99.7% | binding result (Human VEGF165): no binding (tested: 20000 pM) | MSD-based binding inhibition BTC/ErbB1 (Human BTC [3]): > 90% | Cell-based binding inhibition BTC/ErbB1 (Human BTC [4]): > 90% | Kd (Human BTC [5]): 1.7 pM
B1: NVS1 (Fab, V domains shown)
VH: QVQLVQSGAEVKKPGSSVKVSCKASGGTFSSYAISWVRQAPGQGLEWMGGIVPWMGEAVYAQKFQGRVTITADESTSTAYMELSSLRSEDTAVYYCARSSSTYGIHAFDYWGQGTLVTVSS
VL: DIQMTQSPSSLSASVGDRVTITCRASQSISNFLNWYQQKPGKAPKLLIYAASNLQSGVPSRFSGSGSGTDFTLTISSLQPEDFATYYCQQYDDFPMTFGQGTKVEIKR
notes: also called Fab NVS1; NVS1 Fab
